Laboratory results reported in patent US20030148957A1 (PROCTER AND GAMBLE, published 2003).
Ends that are not written are not given here.

Target: T1, CRF2R
T1 sequence (Q13324 whole entry, species assumed, looked up): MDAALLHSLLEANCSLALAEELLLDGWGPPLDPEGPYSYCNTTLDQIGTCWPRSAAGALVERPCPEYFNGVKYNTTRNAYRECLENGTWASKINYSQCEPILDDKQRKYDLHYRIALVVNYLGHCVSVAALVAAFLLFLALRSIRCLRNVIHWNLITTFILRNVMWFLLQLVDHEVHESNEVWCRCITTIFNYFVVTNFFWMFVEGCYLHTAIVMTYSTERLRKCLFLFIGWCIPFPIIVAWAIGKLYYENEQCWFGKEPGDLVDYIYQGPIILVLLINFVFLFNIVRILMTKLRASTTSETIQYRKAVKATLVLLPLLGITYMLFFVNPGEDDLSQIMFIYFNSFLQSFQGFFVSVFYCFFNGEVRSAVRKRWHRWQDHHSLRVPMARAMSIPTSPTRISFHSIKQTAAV
Test: cell-based or functional assay

CRF2R (Emax %): 100%
Binder: IVLSLDVPIGLLQELLEMARAEQLAQQAHSNRKLMEII-NH2 [SEQ ID NO 1]
